Biological target: CXCR2-4A/IL (S342A/S346A/S347A/S348A and I323A/L324A) (human)
Assay: co-IP

Chain of β-arrestin1 (P49407 whole entry): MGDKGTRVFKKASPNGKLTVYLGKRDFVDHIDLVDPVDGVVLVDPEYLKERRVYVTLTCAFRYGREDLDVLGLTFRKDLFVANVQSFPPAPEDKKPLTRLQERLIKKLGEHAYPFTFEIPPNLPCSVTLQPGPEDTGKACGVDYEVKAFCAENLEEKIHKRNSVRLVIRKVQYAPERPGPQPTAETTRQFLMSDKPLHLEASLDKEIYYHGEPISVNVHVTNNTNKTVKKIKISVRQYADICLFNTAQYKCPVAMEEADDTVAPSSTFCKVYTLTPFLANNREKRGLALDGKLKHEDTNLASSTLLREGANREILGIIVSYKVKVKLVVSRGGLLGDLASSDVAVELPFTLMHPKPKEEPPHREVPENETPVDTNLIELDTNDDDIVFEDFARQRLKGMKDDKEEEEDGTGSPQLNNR

“β-arrestin1 (from UniProt P49407 1-418) (natural protein)” gave a reduction of binding (co-precipitated β-arrestin1) of 90%.

— publication PMC3966550
